Measurements from paper PMC9427763, “Structure and dynamics of Toll immunoreceptor activation in the mosquito Aedes aegypti” (Nature Communications, 2022).
“And” between values parts separate entries of the source, which are not always exact repeats. Identical values can stand only once.

T1: Aedes aegypti Spaetzle1C cystine-knot domain (residues 219-320), disulphide-linked dimer (Aedes aegypti, intermolecular disulphide bonds between Cys-94 and between Cys-59 of the two chains)
T1 chain: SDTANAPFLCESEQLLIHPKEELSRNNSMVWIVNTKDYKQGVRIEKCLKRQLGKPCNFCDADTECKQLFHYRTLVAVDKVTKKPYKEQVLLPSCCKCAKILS

T2: Drosophila melanogaster Toll (Toll1) ectodomain (Drosophila melanogaster, UniProt P08953 28-807)
T2 construct: Toll receptor 1, Drosophila melanogaster, purified ectodomain; also called DmToll1; DmToll
T2 sequence (looked up): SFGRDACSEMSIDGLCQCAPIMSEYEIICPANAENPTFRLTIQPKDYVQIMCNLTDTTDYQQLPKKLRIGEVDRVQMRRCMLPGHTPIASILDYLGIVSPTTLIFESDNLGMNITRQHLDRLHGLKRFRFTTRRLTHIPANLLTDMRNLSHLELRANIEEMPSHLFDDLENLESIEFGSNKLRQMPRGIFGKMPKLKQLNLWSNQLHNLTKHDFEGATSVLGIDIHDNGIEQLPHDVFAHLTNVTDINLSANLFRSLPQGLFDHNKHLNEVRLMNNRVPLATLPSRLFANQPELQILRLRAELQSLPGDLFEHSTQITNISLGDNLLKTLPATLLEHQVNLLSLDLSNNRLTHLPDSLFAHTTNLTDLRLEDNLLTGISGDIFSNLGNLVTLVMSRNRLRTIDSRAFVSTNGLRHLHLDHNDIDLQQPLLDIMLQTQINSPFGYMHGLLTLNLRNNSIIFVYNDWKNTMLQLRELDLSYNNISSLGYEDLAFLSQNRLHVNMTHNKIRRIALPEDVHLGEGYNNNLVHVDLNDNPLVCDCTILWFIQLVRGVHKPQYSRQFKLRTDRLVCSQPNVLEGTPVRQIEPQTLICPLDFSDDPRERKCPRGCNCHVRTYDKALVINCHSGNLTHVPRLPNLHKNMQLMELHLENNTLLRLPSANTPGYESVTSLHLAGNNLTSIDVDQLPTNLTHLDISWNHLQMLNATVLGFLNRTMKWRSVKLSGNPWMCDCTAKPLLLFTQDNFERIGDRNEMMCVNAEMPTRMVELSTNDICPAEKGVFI

B1: Aedes aegypti Toll5A ectodomain (residues 1-789) (receptor)
chain: TSTKRFTCPEESEASNCSCEEFPSKTHFYCPDFNPTLYVDVEDRMRVDFKCYDEPHDFKSLPNLAIGSVKLLTVVDCVLDDDRPILESFKFLEVADVRSFVYNNHENGIRYNAKYFEGMEQLENLTLARGVVSIDRDTFSGFLNLKRLTIEHNKLNLQPGTFEALSNLTYLGLVYNGLNEIQPGLFDGLESLEALSLSYNDIKSLSAGSFNGLSSLRMLNLRVNKIESFDANTFASLKELSRLEITLNPFVSLPRGLFSENKKLKTLILTNNRKLVTLPEELLANLKELTVVNLSHNGVGNLPESLLSGSSGIIELNLGYNRLNSLPEELLSDQPQLQVLNLDHNQLESIPDYFLERNVELQTLYLSHNRLRSLSEKAFTKLKNLKELHLENNQLQTIPQFLFSGTPKLEEIYMQNNQLALHANSFINEELSIADNDNTPFQVLQKLRILHLRNNSISTIFQDWYINNLEMQSLDLSFNKLPGLSYTQLQFQSNITLNLSNNEISQVLLIDDLDLQPYQRINVDLNHNPLNCNCNALKFIQLIQSKAEHGLQFNVDQLRCSEPPNLLDATMDQLQTKDLLCDFESADDCPKDCQCAMRLLDHTVIVNCSGRGLTEFPDLPIPSQLHEDFNALEVHVENNRLTKLPNLTKHNEITQLYARNNSIQNLLPHNIPSKLRIIDLSQNLLKMIDDSTLAQINRSSHLETIRLSQNQWLCDCPASSFLIFVQQNSRLISDMSAIRCHPSGKSLDSITVNELCFEDYTTENLYFQ
modifications: Asn-linked glycans visible at positions 151, 194, 481, 521, 634 and 687
B2: Drosophila melanogaster Spaetzle (Spz1) (ligand)
chain: VGGSDERFLCRSIRKLVYPKKGLRADDTWQLIVNNDEYKQAIQIEECEGADQPCDFAANFPQSYNPICKQHYTQQTLASIKSDGELDVVQNSFKIPSCCKCALKTG
modifications: disulfide-linked dimer of the processed cys-knot form (C-106; limits from the UniProt chain feature, not given); the proprotein (26-326) was also immobilised

What was measured:
[1] = target: Aedes aegypti Spaetzle1C cystine-knot domain (residues 219-320), disulphide-linked dimer (Aedes aegypti); assay: mass photometry; 25 nM Toll5A with 25 nM Spz1C; PBS pH 7.4; Refeyn OneMP
[2] = target: Aedes aegypti Spaetzle1C cystine-knot domain (residues 219-320), disulphide-linked dimer (Aedes aegypti); assay: mass photometry; 50 nM Toll5A with 50 nM Spz1C; PBS pH 7.4; Refeyn OneMP
[3] = target: T1, Aedes aegypti Spaetzle1C cystine-knot …; assay: SPR; heterogeneous ligand fit, site 1
[4] = target: T1, Aedes aegypti Spaetzle1C cystine-knot …; assay: SPR; heterogeneous ligand fit, second site
[5] = target: Aedes aegypti Toll5A ectodomain (residues 1-789) (Aedes aegypti); assay: AUC; sedimentation velocity, Toll5A ectodomain alone at ≥ 30 μM; 50,000 rpm, 20 °C; dimer to monomers
[6] = target: Aedes aegypti Spaetzle1C cystine-knot domain (residues 219-320), disulphide-linked dimer (Aedes aegypti); assay: AUC; sedimentation velocity, Toll5A with Spz1C at equimolar concentration or in excess; 50,000 rpm, 20 °C
[7] = target: Aedes aegypti Spaetzle1C cystine-knot domain (residues 219-320), disulphide-linked dimer (Aedes aegypti); assay: SEC-MALS; 50 μM Toll5A alone or saturated with Spz1C loaded on Superose 6; 50 mM Tris-HCl pH 7.5, 50 mM NaCl
[8] = target: Aedes aegypti Toll5A ectodomain (residues 1-789) (Aedes aegypti); assay: as above
[9] = target: Aedes aegypti Spaetzle1C cystine-knot domain (residues 219-320), disulphide-linked dimer (Aedes aegypti); assay: SPR; Biacore T200, CM5 chip; Spz1A, Spz1C and DmSpz proproteins and cys-knot ligands immobilised by amine coupling at pH 4.5; Toll ectodomains injected at 0.1-7.5 μM; 100 mM NaCl, 20 mM HEPES pH 7; 30 μl/min; two-state reaction model
[10] = target: T2, Drosophila melanogaster Toll (Toll1) …; assay: as above; settings: both partners purified

| Binder | stoichiometry N (Toll5A per Spz1C dimer) [1] | stoichiometry N (Toll5A per Spz1C dimer (1:1 complex)) [2] | stoichiometry N (Toll5A per Spz1C dimer (2:1 complex)) [2] | stoichiometry N (Toll5A per Spz1C dimer (2:2 complex)) [2] | koff [3] | koff [4] | stoichiometry N [5] | stoichiometry N (Toll5A per Spz1C dimer) [6] | stoichiometry N (Toll5A per Spz1C dimer) [7] | stoichiometry N [8] | Kd [9] | Kd [10] |
| --- | --- | --- | --- | --- | --- | --- | --- | --- | --- | --- | --- | --- |
| B1 | 2 | 1 | 2 | 1 | 0.0324 s⁻¹ | 0.00532 s⁻¹ | 2 | 1 and 2 | 2 | 2 | 2000 nM | – |
| B2 | – | – | – | – | – | – | – | – | – | – | – | 30 to 80 nM |
